Measured values from doi:10.1101/2025.11.21.689414 (bioRxiv, 2025).

What was measured:
[1] = target: alpha hemoglobin stabilizing protein (AHSP) (Homo sapiens (species ; …, UniProt Q9NZD4); test: ELISA
[2] = target: parvin alpha (PARVA) (Homo sapiens (species ; …, UniProt Q9NVD7); test: ELISA
[3] = target: Frizzled class receptor 7 (Fzd7), His-tagged (UniProt O75084); test: BLI

Sequence of parvin alpha (PARVA) (Homo sapiens (Q9NVD7 whole entry): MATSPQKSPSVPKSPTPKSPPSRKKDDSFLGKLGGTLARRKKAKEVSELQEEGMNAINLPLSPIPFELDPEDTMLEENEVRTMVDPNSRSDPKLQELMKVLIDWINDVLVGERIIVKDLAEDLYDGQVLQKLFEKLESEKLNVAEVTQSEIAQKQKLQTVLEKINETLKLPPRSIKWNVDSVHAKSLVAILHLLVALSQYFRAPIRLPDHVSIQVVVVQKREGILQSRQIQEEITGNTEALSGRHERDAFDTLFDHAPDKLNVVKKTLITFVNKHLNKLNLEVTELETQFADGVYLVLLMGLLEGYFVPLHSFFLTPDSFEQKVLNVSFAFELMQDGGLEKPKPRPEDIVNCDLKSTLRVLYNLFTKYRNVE
Sequence of alpha hemoglobin stabilizing protein (AHSP) (Homo sapiens (Q9NZD4 whole entry): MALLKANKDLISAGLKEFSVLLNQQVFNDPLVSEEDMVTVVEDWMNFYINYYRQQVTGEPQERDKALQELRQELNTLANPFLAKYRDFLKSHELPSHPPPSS

B1: representative AHSP binder (GaluxDesign de novo designed full-length IgG, cross-platform benchmark) (antibody, V domains shown)
VH: VQLVESGGGLVQPGGSLRLSCAASGFNIKSFWIHWVRQAPGKGLEWVAWIFALTGNTYYADSVKGRFTISADTSKNTAYLQMNSLRAEDTAVYYCAKASGVSIPLWFDVWGQGTLVTVSS
VL: DIQMTQSPSSLSASVGDKVTITCKASQDISNYLAWYQQKPGKAPKLLIYAASNRKYGVPSRFSGSGSGTDFTLTISSLQPEDFATYYCQQYYSTPLTFGQGTKVEIK
Q: Does B1 bind [1]?
A: binds

B2: representative PARVA binder (GaluxDesign de novo designed full-length IgG, cross-platform benchmark) (antibody, V domains shown)
VH: EEQLVESGGGLVQPGGSLRLSCAASGFNIKDYWIHWVRQAPGKGLEWVAWINPQSGWTNYADSVKGRFTISADTSKNTAYLQMNSLRAEDTATYYCAKIGDWGGKGYALDVWGQGTLVTVSS
VL: DIVMTQSPSSLSASVGDRVTITCRASQDISTALAWYQQKPGQAPKLLIYKASSLASGVPSRFSGSGSGTDFTLTISSLQPEDFATYYCQQFRDLSTLTFGQGTKVEIK
Q: Does B2 bind [2]?
A: binds

B3: F7.B (reference anti-Fzd7 antibody, PDB entry 6O3A) (antibody, V domains shown)
VH: EVQLVESGGGLVQPGGSLRLSCAASGFNFSSSSIHWVRQAPGKGLEWVAYIYPSYDYTYYADSVKGRFTISADTSKNTAYLQMNSLRAEDTAVYYCARGYFYTWGGMDYWGQGTLVTVSS
VL: DIQMTQSPSSLSASVGDRVTITCRASQSVSSAVAWYQQKPGKAPKLLIYSASSLYSGVPSRFSGSRSGTDFTLTISSLQPEDFATYYCQQYYSLFTFGQGTKVEIK
Q: Does B3 bind [3]?
A: binds
